Entries after “also recorded” stand apart in the source; their conditions may differ.
Tests used:
Assay type in all cases: cell-based, human
[1] = tested on: SR1423 cells; assay: Glucagon added to the culture media during differentiation
Procedure: A second batch of SR1423 cells were seeded at 6.3×10^4 as described above and allowed to grow for 18-24 hours. […]

[2] = tested on: SR1423 cells; assay: Impact of KGF at earlier stages of differentiation, SR1423; conditions: KGF at earlier stages of differentiation (early endoderm)
Procedure: Differentiation: A first batch of SR1423 cells were seeded at 2.3×10^4 cells/cm^2 and allowed to grow for 18-24 hours. Cells were then washed with dPBS (—Mg^2+/—Ca^2+) and medium was changed following a 28 day schedule comprised of 6 media formulation as follows: Days 1, 2, 3: DMEM/F-12 medium (Life Technologies #10565018), 0.2% HSA, 1XB27 supplement (Life Technologies #A1486701), 100 ng/ml Activin A and 1 uM Wortmannin; Days 4, 5, 6, 7: DMEM (Life Technologies #10567014), 0.2% HSA, 1XB27 supplement, 4 uM Retinoic Acid, 50 ng/ml KGF, 50 ng/ml Noggin, 0.25 uM Cyclopamine KAAD; Days 8, 10: DMEM, 0.2% HSA, 1XB27 supplement, 50 ng/ml KGF, 50 ng/ml Noggin, 50 ng/ml EGF; Days 12, 14: DMEM, 0.2% HSA, 1XB27 supplement, 50 ng/ml Noggin, 50 ng/ml EGF, 1 uM γ-secretase inhibitor XXI, 10 uM Alk5i II, 1 uM T3; Days 16, 18: DMEM, 0.2% HSA, 1XB27 supplement, 10 uM Alk5i II, 1 uM T3, 100 nM Retinoic Acid; Days 20, 22, 24, 26, 28: CMRL (Life Technologies #11530037), 0.2% HSA, 1× B27 supplement, 1× glutamax (Life Technologies # 35050061), 10 uM Alk5i II, 1 uM T3, 10 mM Nicotinamide, 50 ng/ml IGF-I, 10 ng/ml BMP4. For differentiations with the addition of a second stage employing KGF, medium on days 4, 5, 6 with DMEM, 0.2% BSA, 1XB27 supplement, and 50 ng/ml KGF was inserted into the schedule shifting the remaining stages three days later. […]

[3] = tested on: embryonic stem cell line BGO1V; assay: Impact of KGF at earlier stages of differentiation, BGO1V

Row | Molecule | amount of cells that co-express insulin and glucagon [1] | production of pancreatic and insulin-producing cells [2] | production of pancreatic and insulin-producing cells [3]
1 | glucagon: peptide hormone added to the sixth differentiation medium | reducing the amount of cells that co-express insulin and glucagon; also recorded: reduces the amount of cells that co-express insulin and glucagon |  | 
2 | KGF: keratinocyte growth factor used as differentiation factor in culture medium (protein, UniProt P21781 32-194, looked up) Fibroblast growth factor 7: CNDMTPEQMATNVNCSSPERHTRSYDYMEGGDIRVRRLFCRTQWYLRIDKRGKVKGTQEMKNNYNIMEIRTVAVGIVAIKGVESEFYLAMNKEGKLYAKKECNEDCNFKELILENHYNTYASAKWTHNGGEMFVALNQKGIPVRGKKTKKEQKTAHFLPMAIT |  | marked reduction | matching results

From patent US11484554B2, “Pancreatic cells for treating diabetes and methods of generating the same” (Seraxis, Inc., priority 2018, dated 2022)
